B1: antibody 50 (antibody, V domains shown)
VH: QVQLQQSGAELVRPGASVKVSCKASGYAFSNYLIEWVKQRPGQGLEWIGVINPGSGFTKYNEKFKGKATLTADKSSSTAYMQLSSLTSEDSAVYFCARGLYRAMDYWGQGTSVTVSS
VL: DIQMTQSPASQSASLGESVTITCLASQTIGTWLAWYQQKPGKSPQLLIYAAASLADGVPSRFSGGGSGTKFSFKISSLQAEDFVNYYCQQIYSTPYTFGGGTKLEIK
notes: mouse IgG, kappa light chain; also called clone #50; purified antibody 50
B2: antibody 34 (antibody, V domains shown)
VH: QVTLKESGPGILQPSQTLSLTCSFSGFSLSTFSLGVGWIRQSSGKGLEWLAHIWWDDEKYYNPALKSRLTISKDTSKNQVFLKIANVDAADTATYYCARAYYSKSYYALDYWGQGTSVTVSS
VL: DIQMTQSPSSLSASLGERVSLTCRASQEISGYLSWLQQKPDGTIKRLIYAASTLDSGVPKRFSGSRSGSDYSLAISSLESEDFADYYCLQYANFPFTFGSGTKLEIK
notes: mouse IgG, kappa light chain; also called clone #34; purified antibody 34
B3: antibody 42 (antibody, V domains shown)
VH: QVTLKESGPGILQPSQTLSLTCSLSGFSLSTFGRGVGWIRQPSGKGLEWLAHIWWDDEKYYNPALKSRLTISKDTSKNQVFLRIANVDTADTATYYCARIQNYGSNYWYFDVWGTGTTVTVSS
VL: LIVLTQSPAIMSASPGEKVTMTCGATSRISYMFWYQQKPGSSPRVLIYDTSNLASGVPVRFSGSGSGTSYSLTISRVEAEDVATYYCQQWNSYPLTFGAGTKLELK
notes: mouse IgG, kappa light chain; also called clone #42; purified antibody 42
B4: antibody 43 (antibody, V domains shown)
VH: QVALKESGPGILQPSQTLSLTCSFSGFSLSTFGMGVGWIRQSSGKGLEWLANIWWDDDKYYNPALKSRLTISKDASKNQAFLKIANVDTADTATYYCARIGNYGSNYWYFDVWGTGTTVTVSS
VL: QIVLTQSPAIMSASPGERVTMTCSANSRISYMYWYQQKPGSSPRLLIYDTSNLASGVPVRFSGSGSGTSYSLTISRMEAEDAATYNCQQWSSYPLTFGAGTKLELK
notes: mouse IgG, kappa light chain; also called clone #43; purified antibody 43
B5: antibody 44 (antibody, V domains shown)
VH: QVTLKESGPGILQPSQTLSLTCSFSGFSLSTFGMGVGWIRQPSEKGLEWLAHIWWDDDKYYNPALKSRLTISKDTSKNQIFLKITNVDTAETATYYCSRIGNYGSNYWYFDVWGTGTTVTVSS
VL: QIVLTQSPAVMSASPGEKVTMTCTASSSVYYMYWYQQTPGSSPRLLIYDTSNLASGVPVRFSGSGSGTSYSLTISRMEAEDAATYYCQQWNTYPLTFGAGTKLELK
notes: mouse IgG, kappa light chain; also called clone #44; purified antibody 44
B6: antibody 48 (antibody, V domains shown)
VH: QVQLQQSGTELVRPGTSVKVSCKASGYAFTNYLIEWVKQRPGQGLEWIGVINPGSGFTKYNEKFKGKATLTADKSSSTVYMHLSSLTSEDSAVYFCARGLYRAMDYWGQGTSVTVSS
VL: DIQMTQSPASQSASLGESVTITCLASQTIATWLAWYQQKPGKSPQLLIYGATTLADGVPSRFSGGGSGTKFSFKISSLQAEDFVSYYCQQLYSTPYTFGGGTKLEIK
notes: mouse IgG, kappa light chain; also called clone #48; purified antibody 48

One assay concerns the target T1, hiR1-FL-WT-T7 (human, UniProt Q96CC6 1-855).
T1 construct: on MEF-DKO cells
T1 sequence: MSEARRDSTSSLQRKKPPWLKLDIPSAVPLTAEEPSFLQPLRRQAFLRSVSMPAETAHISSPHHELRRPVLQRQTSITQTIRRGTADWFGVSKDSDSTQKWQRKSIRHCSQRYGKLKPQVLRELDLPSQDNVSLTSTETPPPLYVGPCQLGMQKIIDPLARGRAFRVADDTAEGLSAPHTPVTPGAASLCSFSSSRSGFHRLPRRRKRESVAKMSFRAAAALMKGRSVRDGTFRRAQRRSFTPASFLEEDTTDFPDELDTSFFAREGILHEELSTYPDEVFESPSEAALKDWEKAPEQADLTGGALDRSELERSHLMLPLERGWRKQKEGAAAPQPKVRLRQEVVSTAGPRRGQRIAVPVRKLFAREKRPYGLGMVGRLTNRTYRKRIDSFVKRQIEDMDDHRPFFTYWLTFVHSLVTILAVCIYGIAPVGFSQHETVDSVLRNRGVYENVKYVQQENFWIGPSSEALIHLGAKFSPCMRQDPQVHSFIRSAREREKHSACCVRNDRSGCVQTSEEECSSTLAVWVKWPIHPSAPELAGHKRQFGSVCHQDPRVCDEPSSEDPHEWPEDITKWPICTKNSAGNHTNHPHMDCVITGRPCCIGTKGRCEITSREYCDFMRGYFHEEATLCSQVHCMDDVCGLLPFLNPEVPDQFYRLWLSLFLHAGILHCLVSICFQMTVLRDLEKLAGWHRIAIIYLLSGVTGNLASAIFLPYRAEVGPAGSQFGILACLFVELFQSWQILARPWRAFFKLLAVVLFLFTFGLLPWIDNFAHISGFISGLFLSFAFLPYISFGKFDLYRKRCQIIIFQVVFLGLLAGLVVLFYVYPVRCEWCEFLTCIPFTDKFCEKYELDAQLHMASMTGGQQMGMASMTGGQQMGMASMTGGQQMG
The assay can be described thus: FACS on MEF-DKO cells.
Regarding B1, the binding result is reported as “no binding (tested: 3 µg/ml)”.

As to B2, the binding result is “no binding (tested: 3 µg/ml)”.

Take B3: the binding result was “no binding (tested: 3 µg/ml)”.

For B4, the binding result was “no binding (tested: 3 µg/ml)”.

For the molecule B5, the binding result is “no binding (tested: 3 µg/ml)”.

The target of another assay is T2, hiR2-FL-M591A-T7 (human, UniProt Q6PJF5 1-856).
T2 sequence: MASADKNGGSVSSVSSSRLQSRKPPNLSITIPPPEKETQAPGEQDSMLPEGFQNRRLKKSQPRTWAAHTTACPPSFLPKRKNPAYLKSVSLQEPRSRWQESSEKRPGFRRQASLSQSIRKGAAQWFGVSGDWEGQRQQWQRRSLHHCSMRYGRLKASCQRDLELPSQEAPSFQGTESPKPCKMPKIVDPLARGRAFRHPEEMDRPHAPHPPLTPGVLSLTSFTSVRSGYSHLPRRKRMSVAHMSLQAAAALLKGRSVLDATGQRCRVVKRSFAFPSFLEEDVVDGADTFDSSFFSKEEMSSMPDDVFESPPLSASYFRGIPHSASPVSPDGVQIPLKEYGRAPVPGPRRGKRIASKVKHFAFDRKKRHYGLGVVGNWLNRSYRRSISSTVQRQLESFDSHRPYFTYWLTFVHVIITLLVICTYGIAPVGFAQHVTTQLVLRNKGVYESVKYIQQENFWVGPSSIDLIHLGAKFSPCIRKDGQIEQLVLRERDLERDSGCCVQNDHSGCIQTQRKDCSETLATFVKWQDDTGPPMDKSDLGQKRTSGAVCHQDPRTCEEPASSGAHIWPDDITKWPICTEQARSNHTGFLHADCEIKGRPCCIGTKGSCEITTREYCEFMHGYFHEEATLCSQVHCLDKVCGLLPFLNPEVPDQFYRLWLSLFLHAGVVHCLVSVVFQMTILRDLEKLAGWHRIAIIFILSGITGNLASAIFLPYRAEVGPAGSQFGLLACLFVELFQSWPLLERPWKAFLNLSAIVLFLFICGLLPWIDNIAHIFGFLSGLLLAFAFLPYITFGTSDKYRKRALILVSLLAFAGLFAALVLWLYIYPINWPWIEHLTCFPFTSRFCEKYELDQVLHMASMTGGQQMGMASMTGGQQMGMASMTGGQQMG
The experiment in a line: FACS on MEF-DKO cells expressing the variant, 3 µg/ml antibody. Summed up:
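Read-out is PE fluorescence by flow cytometry after two-step staining: antibody at 3 μg/ml for 1 hour on ice, then PE-labelled goat anti-mouse IgG F(ab′)2 (1:100) for 1 hour on ice.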
On to B6, for which the “loss of binding vs wild type” value is no less than 30%.

With B1, the “loss of binding vs wild type” value is no less than 30%.

For the origin of these results see patent US20240287172A1 (SCIRHOM, published 2024).
